Source: patent US20210221849A1 (MIRABIOLOGICS, published 2021)

Columns and labels:
[1] = target: T1, plexin B1-PA (extracellular region of human plexin B1 with a PA tag at the C terminal) (human, UniProt O43157 20-1490); test: sandwich ELISA type test: plexin B1-PA on plate, Fab supernatant, detection with Nrp1ec-AP, A405
T1 construct: extracellular domain; Soluble receptor fragment expressed in Expi293F cells; Culture supernatant in the pulldown tests, purified for the sandwich tests; also called hPlexB1; plexin B1-BA; not shown: PA tag (Wako Pure Chemical Industries)
T1 sequence (looked up): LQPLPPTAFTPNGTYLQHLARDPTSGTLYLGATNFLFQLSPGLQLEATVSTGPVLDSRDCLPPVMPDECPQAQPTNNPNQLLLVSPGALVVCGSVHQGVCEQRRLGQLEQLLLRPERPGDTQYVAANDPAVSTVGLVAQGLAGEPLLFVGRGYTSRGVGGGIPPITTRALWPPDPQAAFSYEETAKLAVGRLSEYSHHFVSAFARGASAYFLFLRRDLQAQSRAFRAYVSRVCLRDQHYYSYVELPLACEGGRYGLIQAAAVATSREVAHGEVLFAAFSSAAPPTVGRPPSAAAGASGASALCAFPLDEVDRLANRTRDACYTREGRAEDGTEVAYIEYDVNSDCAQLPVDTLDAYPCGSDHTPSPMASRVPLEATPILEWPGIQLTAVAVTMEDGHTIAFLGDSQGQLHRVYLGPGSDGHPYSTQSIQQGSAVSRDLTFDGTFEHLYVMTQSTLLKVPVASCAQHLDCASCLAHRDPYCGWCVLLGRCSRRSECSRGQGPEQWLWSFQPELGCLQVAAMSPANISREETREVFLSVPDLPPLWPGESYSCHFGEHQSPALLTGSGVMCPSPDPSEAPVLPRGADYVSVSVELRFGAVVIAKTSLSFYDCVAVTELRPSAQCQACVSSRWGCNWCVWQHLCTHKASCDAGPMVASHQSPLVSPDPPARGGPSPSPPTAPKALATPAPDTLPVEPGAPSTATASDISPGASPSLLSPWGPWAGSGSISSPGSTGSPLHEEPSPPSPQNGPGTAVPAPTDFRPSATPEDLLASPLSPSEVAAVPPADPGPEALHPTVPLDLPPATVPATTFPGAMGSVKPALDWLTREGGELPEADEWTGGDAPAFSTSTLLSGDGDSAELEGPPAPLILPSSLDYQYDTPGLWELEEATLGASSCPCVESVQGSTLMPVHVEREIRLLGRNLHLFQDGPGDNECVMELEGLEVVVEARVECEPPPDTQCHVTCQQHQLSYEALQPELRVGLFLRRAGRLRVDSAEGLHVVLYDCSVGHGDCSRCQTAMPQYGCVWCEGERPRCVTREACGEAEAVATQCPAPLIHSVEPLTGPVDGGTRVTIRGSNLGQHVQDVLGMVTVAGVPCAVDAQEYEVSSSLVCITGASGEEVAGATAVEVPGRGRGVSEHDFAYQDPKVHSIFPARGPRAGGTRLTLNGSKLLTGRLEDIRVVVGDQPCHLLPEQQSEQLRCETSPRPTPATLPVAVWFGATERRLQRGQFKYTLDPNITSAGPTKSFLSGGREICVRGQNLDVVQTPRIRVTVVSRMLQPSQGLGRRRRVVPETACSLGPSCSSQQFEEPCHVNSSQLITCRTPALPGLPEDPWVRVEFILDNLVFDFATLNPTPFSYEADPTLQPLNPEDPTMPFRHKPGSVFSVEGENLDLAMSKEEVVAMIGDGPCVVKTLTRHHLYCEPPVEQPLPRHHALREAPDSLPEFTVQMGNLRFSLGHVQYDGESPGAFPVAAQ

[2] = target: T2, Met-PA (extracellular region of a human Met receptor with a PA tag at the C terminal) (human, UniProt P08581 25-932); test: sandwich ELISA type test: Met-PA on plate, Fab supernatant, detection with Nrp1ec-AP, A405
T2 construct: extracellular domain; Soluble receptor fragment expressed in Expi293F cells; also called second target antigen; not shown: PA tag
T2 sequence (P08581 25-932): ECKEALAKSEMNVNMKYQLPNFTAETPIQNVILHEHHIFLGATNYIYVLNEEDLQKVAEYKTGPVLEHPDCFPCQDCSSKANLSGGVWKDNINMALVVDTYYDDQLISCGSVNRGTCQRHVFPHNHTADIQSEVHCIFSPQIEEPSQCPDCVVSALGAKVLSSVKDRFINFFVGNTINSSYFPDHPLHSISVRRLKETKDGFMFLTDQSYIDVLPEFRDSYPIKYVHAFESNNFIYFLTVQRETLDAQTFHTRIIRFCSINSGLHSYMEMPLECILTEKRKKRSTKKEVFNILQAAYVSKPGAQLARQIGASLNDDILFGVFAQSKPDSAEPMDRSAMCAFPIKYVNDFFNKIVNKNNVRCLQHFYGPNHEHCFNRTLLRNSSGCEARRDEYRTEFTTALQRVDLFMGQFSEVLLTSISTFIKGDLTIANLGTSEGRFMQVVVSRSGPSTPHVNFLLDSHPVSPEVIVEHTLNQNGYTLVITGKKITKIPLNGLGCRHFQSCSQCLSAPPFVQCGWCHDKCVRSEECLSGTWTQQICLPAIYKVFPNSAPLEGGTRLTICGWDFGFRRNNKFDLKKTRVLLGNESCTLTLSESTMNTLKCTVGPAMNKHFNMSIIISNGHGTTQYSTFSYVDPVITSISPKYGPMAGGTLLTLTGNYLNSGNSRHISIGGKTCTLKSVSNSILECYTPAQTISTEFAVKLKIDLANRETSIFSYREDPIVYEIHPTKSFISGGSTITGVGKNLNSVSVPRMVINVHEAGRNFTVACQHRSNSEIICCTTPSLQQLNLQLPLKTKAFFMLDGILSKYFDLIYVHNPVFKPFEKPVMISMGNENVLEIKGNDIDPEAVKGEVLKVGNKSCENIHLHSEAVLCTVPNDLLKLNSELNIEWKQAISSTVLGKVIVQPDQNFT

binding result [1]: no binding | binding result [2]: no binding
B1: N1_Fab having no peptide inserted therein (Fab, V domains shown)
VH: EVQLVESGGGLVQPGGSLRLSCAASGFSFSSEPISWVRQAPGKGLEWVSSITGKNGYTYYADSVKGRFTISADTSKNTAYLQMNSLRAEDTAVYYCARWGKKVYGMDVWGQGTLVTVSS
VL: DIQMTQSPSSLSASVGDRVTITCRASQSISSYLAWYQQKPGKAPKLLIYGASSRASGVPSRFSGSGSGTDFTLTISSLQPEDFATYYCQQYMSVPITFGQGTKVEIKR
notes: Unfused control Fab, used as culture supernatant; also called Fab of human IgG1 monoclonal antibody N1 (clone name YW64.3) against neuropilin 1
